Experimental data as given in patent publication US20070116702A1, “Survival promoting NCAM binding and MCAM ligand binding compounds” (priority 2001, published 2007).
Positions count from the first letter of the chain named. No end group written: not given here.

B1: Ig1: Recombinant Ig1 domain of rat NCAM produced in Pichia pastoris (protein)
chain: LQVDIVPSQGEISVGESKFFLCQVAGDAKDKDISWFSPNGEKLSPNQQRISVVWNDDDSSTLTIYNANIDDAGIYKCVVTAEDGTQSEATVNVKIFQ
B2: NCAM(20-208) first mutant: Glu-30, Glu-35 and Lys-37 substituted with Ala (receptor, UniProt P13596 20-208, looked up)
chain: LQVDIVPSQGAISVGASAFFLCQVAGDAKDKDISWFSPNGEKLSPNQQRISVVWNDDDSSTLTIYNANIDDAGIYKCVVTAEDGTQSEATVNVKIFQKLMFKNAPTPQEFKEGEDAVIVCDVVSSLPPTIIWKHKGRDVILKKDVRFIVLSNNYLQIRGIKKTDEGTYRCEGRILARGEINFKDIQVIV
B3: NCAM(20-208) third mutant: Glu-30, Glu-35, Lys-37, Arg-192, Arg-196 and Glu-198 substituted with Ala (receptor, UniProt P13596 20-208, looked up)
chain: B2 chain with R173A, R177A, E179A
B4: NCAM(20-208) second mutant: Arg-192, Arg-196 and Glu-198 substituted with Ala (receptor, UniProt P13596 20-208, looked up)
chain: B2 chain with A11E, A16E, A18K, R173A, R177A, E179A
B5: D3d, tetrameric dendrimer of the D3 peptide (peptide)
peptide: AKKERQRKDTQ
modifications: also: tetrameric dendrimer: four monomers coupled to a backbone of three lysines, synthesised on Rink amide linker
notes: Immobilised on a CM5 sensor chip in the BIAlite experiment; also called dendrimer peptide D3d
B6: C3d, tetrameric dendrimer of the C3 peptide (peptide)
peptide: ASKKPKRNIKA
modifications: also: tetrameric dendrimer: four monomers coupled to a backbone of three lysines, synthesised on Rink amide linker
notes: Immobilised on a CM5 sensor chip in the BIAlite experiment; also called dendrimer peptide C3d
B7: D4d, tetrameric dendrimer of the D4 peptide (peptide)
peptide: ARALNWGAKPK
modifications: also: tetrameric dendrimer: four monomers coupled to a backbone of three lysines, synthesised on Rink amide linker
notes: Immobilised on a CM5 sensor chip in the BIAlite experiment; also called dendrimer peptide D4d

System: Hippocampal cells
Assay: Aggregate cell cultures of hippocampal cells (aggregates counted after 24 h)
Format: cell-based, rat
Details: ligand present during the aggregation of cells; quantified 24 h after seeding
Procedure: A variety of suitable fragments and variants of NCAM has been discussed above. To be able to identify candidate ligands capable of stimulating NCAM function, where the NCAM function means the function of the NCAM molecule, the inventors have established a simple cell culture system (aggregate cell cultures) that permits a quantitative evaluation of the effect of various ligands. Hippocampal cells are provided from rat embryos. The cells are grown in a defined medium and dissociated cells are seeded in microtiter plates. After 24 h, the, amount of aggregates are counted. Compounds to be tested are added to the cell suspension immediately before seeding of the cells in micro-wells. When NCAM Ig1 binding ligands are present during the aggregation of cells, smaller, but more numerous cell aggregates are seen when quantified 24 h after seeding of the cells. The inhibiting effect of the ligands results in a blockage of the formation of large aggregates from many small aggregates as the adhesion, properties of NCAM are blocked. Thus, small but more numerous cell aggregates are seen in the presence of active ligands.

Molecule	inhibition of aggregation of hippocampal cells
GEISVGESKFFL (listed as Homo sapiens) [Ig1-p]	inhibited aggregation
ARALNWGAKPK (listed as Homo sapiens) [D4]	inhibited aggregation
GRILARGEINFK (listed as Homo sapiens) [Ig2-p]	inhibited aggregation
AKKERQRKDTQ (listed as Homo sapiens) [D3]	inhibited aggregation
B1	inhibited aggregation

Target: the molecule itself
Assay: gel filtration chromatography, homophilic dimer formation
Details: not given

Molecule	binding result
B2	no binding
B3	no binding
B4	no binding

Target: T1, recombinant NCAM Ig1 domain produced in Pichia pastoris (Ig1 PP) (rat, UniProt P13596 20-116, limits assumed)
T1 construct: domain: Ig1; unlabelled analyte in the BIAlite experiment; also called NCAM Ig1-PP
Assay: one-bead one-peptide library stained with biotinylated NCAM Ig1
Details: not given
Procedure: The synthesis of the resin-bound one-bead one-peptide library was performed using the portioning, mix procedure (Furka et al., 1991). Polyethylene syringes served as reaction vessels throughout the synthesis and the final TFA-deprotection. TentaGel resin (Rapp Polymere, Tübingen, Germany) was divided into 18 aliquots and the protein L-amino acids except cysteine and histidine were used. Side-chains were protected with the following protecting groups: Asp(tBu), Glu(tBu), Tyr(tBu), Ser(tBu), Thr(tBu), Asn(trt), Gln(trt), Lys(Boc), Trp(Boc), Arg(pmc). Fmoc-protected amino acids (5 eq; Milligen or Novabiochem) were coupled overnight using 5eq DIC and 5eq HOBt. Removal of the Fmoc group was accomplished with 25% piperidine in DMF for 20 min. The side chain protecting groups were removed with […], 5% anisole, 5% H₂O, 5% EDT, 2.5% thioanisole at mom temperature for 2.5 h followed by washing with tetrahydrofuran and 1% HOAc and the resin was subsequently lyophilised. Screenings were done by incubating 2 ml resin (equivalent to ca. 10⁶ beads) with biotinylated receptor in Tris/HCl buffer (Tris/HCl 0.025 M, pH 7.2, 0.25 M NaCl, 0.1 % (w/v) Tween 20) containing 0.1% Gelatin (Sigma) for 60 min. Subsequently the resin was washed in Tris/HCl buffer and incubated with avidin-alkaline phosphatase (diluted 1:20000) for 30 min. The substrates BCIP/NBT (Sigma) were added as described by Lam et al. (1992) and stained beads were removed for micro sequencing. The library was screened with the receptor NCAM Ig1-PP (10 mg/ml).

Molecule	binding result
ARALNWGAKPK [D4 peptide (SEQ ID NO:3)]	binds
AKYVLIPIRIS [SEQ ID NO 5]	binds
AKRSVQKLDGQ [SEQ ID NO 11]	binds
AYYLIVRVNRI [SEQ ID NO 8]	binds
AKKEKPNKPND [SEQ ID NO 17]	binds
ARQKTMKPRRS [SEQ ID NO 12]	binds
AGSAVKLKKKA [SEQ ID NO 4]	binds
ASTKRSMQGI [SEQ ID NO 6]	binds
AKKERQRKDTQ [D3 peptide (SEQ ID NO:2)]	binds
ATNKKTGRRPR [SEQ ID NO 9]	binds
AQMGRQSIDRN [SEQ ID NO 18]	binds
AKSRKGNSSLM [SEQ ID NO 21]	binds
AGDYNPDLDR [SEQ ID NO 13]	binds
APKLDRMLTKK [SEQ ID NO 16]	binds
ARKSRDMTAIK [SEQ ID NO 22]	binds
AEGGKKKKMRA [SEQ ID NO 19]	binds
ASQAKRRKGPR [SEQ ID NO 15]	binds
AKKKEQKQRNA [SEQ ID NO 20]	binds
ASKKPKRNIKA [C3 peptide (SEQ ID NO:1)]	binds
ARKTRERKSKD [SEQ ID NO 14]	binds
AKRNGPLINRI [SEQ ID NO 10]	binds

Target: T1, recombinant NCAM Ig1 domain produced in …
Assay: SPR (BIAlite), dendrimer peptide immobilised on CM5 chip, Ig1 in solution
Details: not given
Procedure: Real-time biomolecular interaction analysis was performed using a BIAlite instrument (Pharmacia Biosensor AB, Sweden). All experiments were performed at 25° C. using Hepes buffered saline (HBS: 10 mM Hepes pH 7.4, 150 mM NaCl, 3.4 mM EDTA, 0.005% v/v Surfactant P20 (Pharmacia Biosensor, Sweden) as running buffer. The flow rate was […]. Dendrimer peptides C3d, D3d and D4d (four peptide-monomers coupled to a backbone consisting of three lysines) were immobilised on a sensor chip CM5 (Pharmacia Biosensor AB, Sweden) using the following procedure: the chip was activated by […] 0.05 M N-hydroxysuccinimide, 0.2 M N-ethyl-N′-(dimethylaminopropyl)carbodiimide; peptides were immobilised using […] peptide solution in HBS at a concentration of 60 μg/ml; finally the chip was blocked by 35 μl 1 M ethanolamine hydrochloride pH 8.5. Binding of Ig1 to dendrimer peptides: […] of Ig1 or Ig1I at the indicated concentrations were applied. The chip was regenerated by two […] pulses of 5 mM NaOH. Two independent experiments were performed. The results confirmed that C3d, D3d and D4d bind to the NCAM Ig1 domain.

Molecule	binding result
B5	binds
B6	binds
B7	binds
